Values of other authors, collected in PMC8555654.

Target: PlexA2 (Mus musculus) (UniProt P70207)
Sequence (P70207 35-1237): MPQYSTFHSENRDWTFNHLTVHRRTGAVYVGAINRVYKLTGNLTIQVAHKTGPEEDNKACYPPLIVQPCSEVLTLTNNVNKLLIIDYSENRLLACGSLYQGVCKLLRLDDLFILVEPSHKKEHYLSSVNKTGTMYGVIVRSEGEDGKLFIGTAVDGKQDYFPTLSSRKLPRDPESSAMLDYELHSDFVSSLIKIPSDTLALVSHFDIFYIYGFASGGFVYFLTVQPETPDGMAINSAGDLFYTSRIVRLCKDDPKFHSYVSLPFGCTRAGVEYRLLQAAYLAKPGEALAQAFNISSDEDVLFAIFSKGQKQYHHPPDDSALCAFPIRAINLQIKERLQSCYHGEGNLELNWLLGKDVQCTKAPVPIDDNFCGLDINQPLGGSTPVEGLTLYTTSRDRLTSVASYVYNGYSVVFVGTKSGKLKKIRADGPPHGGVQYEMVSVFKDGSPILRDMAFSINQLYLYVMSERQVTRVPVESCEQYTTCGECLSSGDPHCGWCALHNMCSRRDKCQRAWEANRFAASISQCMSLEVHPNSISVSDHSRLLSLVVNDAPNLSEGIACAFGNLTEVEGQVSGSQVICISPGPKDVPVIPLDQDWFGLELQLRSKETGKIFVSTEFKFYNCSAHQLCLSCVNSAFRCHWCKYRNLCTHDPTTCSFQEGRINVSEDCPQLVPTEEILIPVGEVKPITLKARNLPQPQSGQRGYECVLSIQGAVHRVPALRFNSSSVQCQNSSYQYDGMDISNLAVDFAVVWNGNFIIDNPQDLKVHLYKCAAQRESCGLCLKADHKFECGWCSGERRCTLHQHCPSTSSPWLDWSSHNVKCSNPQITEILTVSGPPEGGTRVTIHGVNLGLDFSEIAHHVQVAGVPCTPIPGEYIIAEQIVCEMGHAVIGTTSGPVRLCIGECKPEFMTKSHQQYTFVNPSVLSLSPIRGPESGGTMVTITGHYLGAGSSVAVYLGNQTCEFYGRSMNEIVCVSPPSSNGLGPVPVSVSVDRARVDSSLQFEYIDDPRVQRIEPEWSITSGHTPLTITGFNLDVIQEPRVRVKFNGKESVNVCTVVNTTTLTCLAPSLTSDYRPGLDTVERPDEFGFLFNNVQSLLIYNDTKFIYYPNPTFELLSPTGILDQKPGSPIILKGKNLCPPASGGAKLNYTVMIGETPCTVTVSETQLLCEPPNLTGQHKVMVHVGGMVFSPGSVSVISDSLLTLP

Npn1 (from UniProt P97333)
Kd: 66 µM
